Test results published in patent US20150266977A1 (AbbVie / Abbott, published 2015).
Positions count from the first letter of the chain named. Where two headings read alike, the source gives them in different places. Blank lines part the entries; values can stand above or below the binder they belong to.

Legend:
[1] = target: T1, recombinant human sclerostin (human, UniProt Q9BQB4 24-213); assay: direct bind ELISA
T1 construct: biotinylated in the ELISAs; also called hu sclerostin; hu scl
T1 sequence: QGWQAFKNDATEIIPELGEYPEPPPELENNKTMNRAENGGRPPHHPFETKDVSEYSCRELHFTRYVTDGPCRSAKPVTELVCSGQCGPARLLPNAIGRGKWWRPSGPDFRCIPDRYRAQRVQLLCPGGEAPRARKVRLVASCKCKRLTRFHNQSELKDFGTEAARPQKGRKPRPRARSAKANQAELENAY

[2] = target: T2, recombinant rat sclerostin (rat, UniProt Q99P67 24-213, limits assumed); assay: SPR
T2 sequence (looked up): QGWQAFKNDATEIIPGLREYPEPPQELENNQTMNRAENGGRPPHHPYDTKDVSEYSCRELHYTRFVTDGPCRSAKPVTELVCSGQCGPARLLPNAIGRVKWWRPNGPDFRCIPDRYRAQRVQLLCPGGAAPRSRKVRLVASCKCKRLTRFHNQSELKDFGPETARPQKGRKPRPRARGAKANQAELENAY

[3] = target: T3, recombinant mouse sclerostin (mouse, UniProt Q99P68 24-211); assay: SPR
T3 construct: also called ms sclerostin; murine sclerostin
T3 sequence (looked up): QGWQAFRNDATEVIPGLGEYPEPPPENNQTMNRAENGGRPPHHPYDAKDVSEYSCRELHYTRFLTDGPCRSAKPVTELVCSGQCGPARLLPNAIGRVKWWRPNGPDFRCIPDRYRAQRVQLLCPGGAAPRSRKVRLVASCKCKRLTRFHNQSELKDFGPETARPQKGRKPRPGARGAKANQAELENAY

[4] = target: T1, recombinant human sclerostin; assay: SPR
Experimental: (§1) Approximately 10,000 RU (or 3000 RU when CM3 chip was used) of goat anti-mouse or anti-human IgG (Fcγ) fragment specific polyclonal antibody (Pierce Biotechnology Inc, Rockford, Ill.) diluted in 10 mM sodium acetate (pH 4.5) was directly immobilized across a CM5 (or CM3) research grade biosensor chip using a standard amine coupling kit according to manufacturer's instructions and procedures at 15 μg/ml. Unreacted moieties on the biosensor surface were blocked with ethanolamine. Modified carboxymethyl dextran surface in flowcells 2, 3 and 4 were used as a reaction surface. Modified carboxymethyl dextran in flow cell 1 was used as the reference surface. Biaevaluation T100 software version 2.0.2, GE Healthcare Life Sciences was used to simultaneously fit association and dissociation phases of all injections (using 1:1 fit analysis with local Rmax). Purified antibodies were diluted in running buffer for capture across goat anti-mouse or anti-human IgG specific reaction surfaces. Antibodies to be captured as a ligand (1 μg/ml) were injected over reaction matrices at a flow rate of 10 μl/minute. The association and dissociation rate constants, kon (unit M-1 s-1) and koff (unit s-1) were determined under a continuous flow rate of 50 μl/minute. […] At the end of each cycle the surfaces were regenerated with 10 s injection of 50 mM NaOH or/and by 10 s injection of 10 mM Glycine pH1.5 at a flow rate of 100 μl/min. Instrument appropriate Biaevaluation software, GE Healthcare Life Sciences was used to simultaneously fit association and dissociation constants as well as KD (using 1:1 global fit analysis with local Rₘₐₓ). Binding was recorded as a function of time and kinetic rate constants are calculated. In this assay, on-rates as fast as 10⁷ M⁻¹ s⁻¹ and off-rates as slow as 10⁻⁶ s⁻¹ can be measured.

[5] = target: T4, recombinant cynomolgus monkey sclerostin (cynomolgus monkey); assay: SPR
T4 construct: also called cyno sclerostin; Cyno sclerostin
Experimental: as §1

[6] = target: T1, recombinant human sclerostin; assay: capture ELISA, biotin-sclerostin
recombinant human TNF-α [7] = target: T5, recombinant human TNF-α (human, UniProt P01375 77-233); assay: SPR
T5 construct: also called huTNF; Human TNFa
T5 sequence (P01375 77-233 limits assumed): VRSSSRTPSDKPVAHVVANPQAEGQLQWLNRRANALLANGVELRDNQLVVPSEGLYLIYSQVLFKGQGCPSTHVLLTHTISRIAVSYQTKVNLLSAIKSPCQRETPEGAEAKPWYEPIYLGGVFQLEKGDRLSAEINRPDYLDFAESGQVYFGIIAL
Experimental: as §1, with “The binding of antibodies or anti-sclerostin-TNF DVD to purified recombinant human, cynomolgus monkey (cyno), rat and mouse sclerostin and TNFα was determined by surface plasmon resonance-based measurements with a Biacore T100 or T200 instruments (GE Healthcare Life Sciences, Piscataway, N.J., USA) using running HBS-EP+ (10 mM HEPES [pH 7.4], 150 mM NaCl, 3 mM EDTA, and 0.005% surfactant P20) containing additional 150 mM NaCl, and/or 10 mg/ml carboxymethyl dextran, 0.1 mg/ml BSA at 25° C. All chemicals were obtained from GE Healthcare Life Sciences, Piscataway, N.J., USA or otherwise from a different source as described in the text. Approximately” for “Approximately”, “μl/min.” for “μl/min. Instrument appropriate Biaevaluation software, GE Healthcare Life Sciences was used to simultaneously fit association and dissociation constants as well as KD (using 1:1 global fit analysis with local Rₘₐₓ). Binding was recorded as a function of time and kinetic rate constants are calculated. In this assay, on-rates as fast as 10⁷ M⁻¹ s⁻¹ and off-rates as slow as 10⁻⁶ s⁻¹ can be measured.”

[8] = target: T1, recombinant human sclerostin; assay: SPR; remark: listed apart in the source
Experimental: as §1, with “The binding of antibodies or anti-sclerostin-TNF DVD to purified recombinant human, cynomolgus monkey (cyno), rat and mouse sclerostin and TNFα was determined by surface plasmon resonance-based measurements with a Biacore T100 or T200 instruments (GE Healthcare Life Sciences, Piscataway, N.J., USA) using running HBS-EP+ (10 mM HEPES [pH 7.4], 150 mM NaCl, 3 mM EDTA, and 0.005% surfactant P20) containing additional 150 mM NaCl, and/or 10 mg/ml carboxymethyl dextran, 0.1 mg/ml BSA at 25° C. All chemicals were obtained from GE Healthcare Life Sciences, Piscataway, N.J., USA or otherwise from a different source as described in the text. Approximately” for “Approximately”, “μl/min.” for “μl/min. Instrument appropriate Biaevaluation software, GE Healthcare Life Sciences was used to simultaneously fit association and dissociation constants as well as KD (using 1:1 global fit analysis with local Rₘₐₓ). Binding was recorded as a function of time and kinetic rate constants are calculated. In this assay, on-rates as fast as 10⁷ M⁻¹ s⁻¹ and off-rates as slow as 10⁻⁶ s⁻¹ can be measured.”

[9] = target: T4, recombinant cynomolgus monkey sclerostin; assay: SPR; remark: listed apart in the source
Experimental: as §1, with “The binding of antibodies or anti-sclerostin-TNF DVD to purified recombinant human, cynomolgus monkey (cyno), rat and mouse sclerostin and TNFα was determined by surface plasmon resonance-based measurements with a Biacore T100 or T200 instruments (GE Healthcare Life Sciences, Piscataway, N.J., USA) using running HBS-EP+ (10 mM HEPES [pH 7.4], 150 mM NaCl, 3 mM EDTA, and 0.005% surfactant P20) containing additional 150 mM NaCl, and/or 10 mg/ml carboxymethyl dextran, 0.1 mg/ml BSA at 25° C. All chemicals were obtained from GE Healthcare Life Sciences, Piscataway, N.J., USA or otherwise from a different source as described in the text. Approximately” for “Approximately”, “μl/min.” for “μl/min. Instrument appropriate Biaevaluation software, GE Healthcare Life Sciences was used to simultaneously fit association and dissociation constants as well as KD (using 1:1 global fit analysis with local Rₘₐₓ). Binding was recorded as a function of time and kinetic rate constants are calculated. In this assay, on-rates as fast as 10⁷ M⁻¹ s⁻¹ and off-rates as slow as 10⁻⁶ s⁻¹ can be measured.”

recombinant human TNF-α [10] = target: T5, recombinant human TNF-α; assay: cell-based or functional assay
Rhesus/cynoTNFa = Rhesus/cynoTNFa (Rhesus/cyno); assay: cell-based or functional assay
Sequence of Rhesus/cynoTNFa (Rhesus/cyno) (P48094 whole entry): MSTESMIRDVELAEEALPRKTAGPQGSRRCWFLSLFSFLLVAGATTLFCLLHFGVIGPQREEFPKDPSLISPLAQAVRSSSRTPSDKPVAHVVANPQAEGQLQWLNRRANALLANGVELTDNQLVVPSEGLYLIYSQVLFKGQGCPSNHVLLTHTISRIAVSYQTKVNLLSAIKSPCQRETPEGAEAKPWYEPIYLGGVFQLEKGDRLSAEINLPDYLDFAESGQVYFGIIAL

- binding result [1]: binds
B1: MSK13 (antibody, V domains shown)
VH: EMQLVQSGAEVKKPGASVKVSCKASGYTFSGYYMNWVRQAPGQGLEWMGWINPYSGAATYAQDFQGRITVTRDTSISTGYMELTRLTSTDTAVYYCARGGTITGASWYFDVWGRGTLVTVSS
VL: DIVMTQTPLSLPVTLGQPASISCRSSQSLVHSDGNTYLNWFQQRPGQSPRRLIYKVSNRDSGVPDRFSGSGSGTDFTLKISRVEAEDVGVYYCMQGTHWPQLTFGGGTKVEIKR
notes: fully human mAb

- binding result [2]: no binding
- binding result [3]: no binding
- Kd [4]: 0.9 nM
- koff [4]: 0.00025 s⁻¹
- kon [4]: 280000 M⁻¹ s⁻¹
- Kd [5]: 0.36 nM
- koff [5]: 0.0001 s⁻¹
- kon [5]: 300000 M⁻¹ s⁻¹
B2: MSL10-AM3.2 (antibody, V domains shown)
VH: EVQLVESGGGLVQPGRSLRLSCAASGFTFDDYALHWVRQAPGKGLEWVSGIGWDEDMIDYADSVKGRFTISRDNAKNSLYLQMNSLRVEDTALYYCAGNNRGYGGLDVWGQGTTVTVSS
VL: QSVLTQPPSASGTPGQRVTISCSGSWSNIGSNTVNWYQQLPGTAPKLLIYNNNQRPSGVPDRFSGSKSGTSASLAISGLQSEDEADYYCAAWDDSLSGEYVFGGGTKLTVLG

- binding result [1]: binds
B3: MSK21 (antibody, V domains shown)
VH: EVQLQQSGPGLVKPSQTLSLTCAISGDSVSSNIVAWNWIRQSPSRGLEWLGRTYYTSKWFNQYAMSVKSRITINPDTSKNQVSLKLSSVTAADTAAYYCARVGGTYDFWSGYYRPYYYGMDVWGQGTMVTVSS
VL: DIRLTQSPSSLSASIGDTVTISCRSSQPINTHLNWFRQLPGRAPELLIYGSSSLHTGVPSRFSGSGSGTDFTLTITSLQRGDFLTYYCQQTHRLPITFGQGTRLDIKR
notes: fully human mAb

- EC50 [6]: 0.427 nM
B4: MSL10 (antibody, V domains shown)
VH: EVQLVESGGGLVQPGGSLRLSCTASGFTFDDYALHWVRQAPGKGLEWVSGISWHGDFIDYADSVKGRFTISRDNSKNTLYLQMNGLRVEDMAIYYCAGNNRGYGGLDVWGQGTTVTVSS
VL: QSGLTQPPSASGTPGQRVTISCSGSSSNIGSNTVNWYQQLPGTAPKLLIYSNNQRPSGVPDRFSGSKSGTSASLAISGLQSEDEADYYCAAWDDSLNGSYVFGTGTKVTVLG
notes: fully human mAb

- Kd (recombinant human TNF-α [7]): 7 pM
- koff (recombinant human TNF-α [7]): 3e-05 s⁻¹
- kon (recombinant human TNF-α [7]): 4.2e+06 M⁻¹ s⁻¹
- Kd [8]: < 0.16 pM
- koff [8]: < 1e-06 s⁻¹
- kon [8]: 6.1e+06 M⁻¹ s⁻¹
- Kd [9]: < 0.1 pM
- koff [9]: < 1e-06 s⁻¹
- kon [9]: 9.9e+06 M⁻¹ s⁻¹
- L929 TNF neutralization IC50 with 50 nM SOST (recombinant human TNF-α [10]): 32 pM
- L929 TNF neutralization IC50 without 50 nM SOST (recombinant human TNF-α [10]): 33 pM
B5: MAK199-1-GS-AE10-6 AM7 QL (bispecific antibody, human IgG1, lambda, L234A L235A)
heavy: EVQLVQSGAEVKKPGASVKVSCKASGYTFANYGIIWVRQAPGQGLEWMGWINTYTGKPTYAQKFQGRVTMTTDTSTSTAYMELSSLRSEDTAVYYCARKLFTTMDVTDNAMDYWGQGTTVTVSSGGGGSGGGGSEVQLVQSGAEVKKPGASVKVSCKVSGYTLTELSMHWVRQAPGKGLEWMGGFDPEDGETIYAQKFQGRVTMTEDTSTDTAYMELSSLRSEDTAVYYCATDTVGYWEKFFQHWGQGTLVTVSSASTKGPSVFPLAPSSKSTSGGTAALGCLVKDYFPEPVTVSWNSGALTSGVHTFPAVLQSSGLYSLSSVVTVPSSSLGTQTYICNVNHKPSNTKVDKKVEPKSCDKTHTCPPCPAPEAAGGPSVFLFPPKPKDQLMISRTPEVTCVVVDVSHEDPEVKFNWYVDGVEVHNAKTKPREEQYNSTYRVVSVLTVLHQDWLNGKEYKCKVSNKALPAPIEKTISKAKGQPREPQVYTLPPSREEMTKNQVSLTCLVKGFYPSDIAVEWESNGQPENNYKTTPPVLDSDGSFFLYSKLTVDKSRWQQGNVFSCSVLHEALHNHYTQKSLSLSPGK
light: DIQMTQSPSSLSASVGDRVTITCRASQDISQYLNWYQQKPGKAPKLLIYYTSRLQSGVPSRFSGSGSGTDFTLTISSLQPEDFATYFCQQGNTWPPTFGQGTKLEIKRGGSGGGGSGQAVVTQEPSLTVSPGGTVTLTCGSSTGTVTIDHYPYWFQQKPGQAPRTLISDTDDKHSWTPARFSGSLLGGKAALTLSGAQPEDEAEYYCLLDYGGRFVFGGGTKLTVLGQPKAAPSVTLFPPSSEELQANKATLVCLISDFYPGAVTVAWKADSSPVKAGVETTTPSKQSNNKYAASSYLSLTPEQWKSHRSYSCQVTHEGSTVEKTVAPTECS
notes: DVD-Ig with CH QL

- EC50 [6]: 12.3 nM
B6: MSL9-8 (antibody, V domains shown)
VH: EVQLVESGGGLVQPGGSLRLSCAASGFRFTDYWMTWVRQAPGKGPEWVANINEDGSKKHYADSVKDRFIISRDNAKKSLSLQMKRMRAEDTAVYYCAADLNPHWLVGWGQGTLVTVSS
VL: QPVLTQPPSVSVAPGKTARITCGGNNIGSRRVHWYQQKPGQAPVLVVYDDNDRPSGIPERFSGSKSGNTATLTISRVEAGDEADYYCQVWHSGRVFGTGTKVTVLG
notes: fully human mAb

- binding result [1]: binds
B7: MSK9 (antibody, V domains shown)
VH: B6 VH with V5L, R28T, T30R, D31S, T35S, P45L, N50S, N52K, E53Q
VL: DIVMTQTPLSLPVTPGEPASISCRSSQSLLHSNGYNYLDWYLQKPGQSPQLLIYLGSKRASGVPDRFSGSGSGTDFTLKISRVGAEDVGVYYCMQGLQTPKAFGPGTKVDIKR
notes: fully human mAb

- L929 TNF neutralization IC50 (Rhesus/cynoTNFa): > 2000 pM
- Kd [8]: < 0.15 pM
- koff [8]: < 1e-06 s⁻¹
- kon [8]: 6.8e+06 M⁻¹ s⁻¹
B8: AE10-6 AM7-GS-MAK195-21 (bispecific antibody, human IgG1, kappa, L234A L235A)
heavy: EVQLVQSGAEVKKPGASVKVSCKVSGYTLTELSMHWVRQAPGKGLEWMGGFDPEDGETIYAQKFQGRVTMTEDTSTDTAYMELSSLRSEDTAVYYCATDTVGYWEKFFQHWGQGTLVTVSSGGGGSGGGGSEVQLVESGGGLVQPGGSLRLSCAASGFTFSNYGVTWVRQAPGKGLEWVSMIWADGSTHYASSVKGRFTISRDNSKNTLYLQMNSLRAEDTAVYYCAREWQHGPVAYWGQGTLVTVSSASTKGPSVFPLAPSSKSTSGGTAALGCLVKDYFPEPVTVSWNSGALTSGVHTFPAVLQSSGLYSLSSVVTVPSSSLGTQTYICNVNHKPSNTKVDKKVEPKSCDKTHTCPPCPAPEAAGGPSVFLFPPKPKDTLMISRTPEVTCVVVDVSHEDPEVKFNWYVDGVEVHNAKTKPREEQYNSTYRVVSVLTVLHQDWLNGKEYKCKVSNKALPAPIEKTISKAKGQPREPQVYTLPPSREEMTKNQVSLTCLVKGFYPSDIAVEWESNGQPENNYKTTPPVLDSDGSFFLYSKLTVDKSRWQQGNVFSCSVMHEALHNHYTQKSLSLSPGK
light: QAVVTQEPSLTVSPGGTVTLTCGSSTGTVTIDHYPYWFQQKPGQAPRTLISDTDDKHSWTPARFSGSLLGGKAALTLSGAQPEDEAEYYCLLDYGGRFVFGGGTKLTVLGGGSGGGGSGDIQMTQSPSSLSASVGDRVTITCRASQLVSSAVAWYQQKPGKAPKLLIYWASARHTGVPSRFSGSGSGTDFTLTISSLQPEDFATYYCQQHYKTPFTFGQGTKLEIKRTVAAPSVFIFPPSDEQLKSGTASVVCLLNNFYPREAKVQWKVDNALQSGNSQESVTEQDSKDSTYSLSSTLTLSKADYEKHKVYACEVTHQGLSSPVTKSFNRGEC
notes: DVD-Ig: outer AE10-6 AM7, inner MAK195-21

- EC50 [6]: 0.778 nM
B9: MSL17 (antibody, V domains shown)
VH: EVQLLESGGGLVKPGRSLRLSCVAYGFSLTGYSMNWVRQAPGKGLEWVSSISPNDTYRHYADSVKGRFTISRDNAKNSLYLQMNSLRAEDTAVYYCARDTNYRDSGGYFYDVFDIWGQGTMVTVSS
VL: SYELTQPPSVSVAPGETARVTCEGNNIGNKGVHWYQQKPGQAPVLVVYDDSDRPSGIPERFSGSNSGNTATLTISRVEAGDDADYYCQVWDSSSDVFGSGTKVTVLG
notes: fully human mAb
